Assay [1] concerns the target T1, human PRLR (Biacore antigen) (human, UniProt P16471 25-234, limits assumed).
T1 construct: The construct injected over captured antibody is not described (a soluble form is likely); also called huPRLR
T1 sequence: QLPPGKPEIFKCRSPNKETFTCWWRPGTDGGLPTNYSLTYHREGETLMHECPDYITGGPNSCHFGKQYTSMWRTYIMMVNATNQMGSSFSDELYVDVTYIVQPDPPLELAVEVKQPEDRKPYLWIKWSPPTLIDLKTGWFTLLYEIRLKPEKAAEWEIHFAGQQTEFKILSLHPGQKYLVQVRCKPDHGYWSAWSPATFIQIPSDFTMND
Nature of the assay: SPR simultaneous binding; PRLR held by surface mAb Ab19. The procedure: (§1) Running buffer was HBS-EP+ (10 mM Hepes, pH7.4, 150 mM NaCl, 3 mM EDTA, 0.05% surfactant). Assay was performed at 12° C. using Biacore T200 and CM5 sensor chips with anti-human IgG (Pierce) amine-coupled in all 4 flow cells to ˜2000 RU.
(§2) Separate test mAbs were captured in flowcells 2, 3 & 4 (flowcell 1 was reference, no test mAb). All 4 flowcells were then blocked by injection with isotype control mAb at 50 ug/ml. All 4 flowcells were then injected with antigen or buffer only (buffer only is for double referencing, done for each mAb pair individually). All 4 flowcells were then injected with 2nd test mAb at 10 ug/ml. All 4 flowcells were then regenerated with glycine, pH1.5.

The target of assay [2] is T1, human PRLR (Biacore antigen). As to the kind of experiment: SPR simultaneous binding; PRLR held by surface mAb chAb7. How it is done: as §1, §2
The target is the same in assay [3]. As to the kind of experiment: SPR Biacore. The method in brief:
(§3)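 Association rate, dissociation rate and dissociation constant were measured by surface plasmon resonance on a Biacore instrument. PRLR antigen was tested at 600 nM, 66.67 nM and 7.41 nM, a 3-point, 9-fold dilution series. Constants came from a 1:1 binding model fit (local Rmax, mass-transport term included) in Biacore T200 Evaluation Software.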

The target of assay [4] is T2, murine PRLR (Biacore antigen) (murine, UniProt Q08501 20-229, limits assumed).
T2 construct: also called muPRLR
T2 sequence (looked up): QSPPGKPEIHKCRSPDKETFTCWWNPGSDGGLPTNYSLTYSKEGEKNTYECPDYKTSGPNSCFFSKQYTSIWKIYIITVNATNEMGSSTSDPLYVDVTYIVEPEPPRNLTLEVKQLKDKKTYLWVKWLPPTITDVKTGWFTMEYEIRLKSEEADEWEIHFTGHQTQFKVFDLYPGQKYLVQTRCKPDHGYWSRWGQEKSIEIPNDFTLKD
As to the kind of experiment: SPR Biacore. The method in brief: as §3

The target in assay [5] is T3, cyno PRLR (Biacore antigen) (cyno, UniProt A0A2K5WXK1 25-234).
T3 construct: also called cyPRLR
T3 sequence: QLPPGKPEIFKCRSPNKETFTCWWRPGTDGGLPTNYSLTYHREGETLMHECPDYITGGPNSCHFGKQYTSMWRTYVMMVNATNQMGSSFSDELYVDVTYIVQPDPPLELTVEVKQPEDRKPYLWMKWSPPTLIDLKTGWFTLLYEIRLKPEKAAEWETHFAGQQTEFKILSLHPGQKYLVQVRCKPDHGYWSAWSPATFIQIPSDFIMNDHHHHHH
As to the kind of experiment: SPR Biacore. The method in brief: as §3

Assay [6] addresses T1, human PRLR (Biacore antigen). Nature of the assay: SPR simultaneous binding; PRLR held by surface mAb Ab21. How it is done:
as §1, §2

Assay [7] has the same target. Nature of the assay: SPR simultaneous binding; PRLR held by surface mAb Ab49. How it is done:
as §1, §2

The target in assay [8] is T4, mouse PRLR on Baf3-mPRLR cells (mouse, UniProt Q08501 20-608).
T4 sequence (looked up): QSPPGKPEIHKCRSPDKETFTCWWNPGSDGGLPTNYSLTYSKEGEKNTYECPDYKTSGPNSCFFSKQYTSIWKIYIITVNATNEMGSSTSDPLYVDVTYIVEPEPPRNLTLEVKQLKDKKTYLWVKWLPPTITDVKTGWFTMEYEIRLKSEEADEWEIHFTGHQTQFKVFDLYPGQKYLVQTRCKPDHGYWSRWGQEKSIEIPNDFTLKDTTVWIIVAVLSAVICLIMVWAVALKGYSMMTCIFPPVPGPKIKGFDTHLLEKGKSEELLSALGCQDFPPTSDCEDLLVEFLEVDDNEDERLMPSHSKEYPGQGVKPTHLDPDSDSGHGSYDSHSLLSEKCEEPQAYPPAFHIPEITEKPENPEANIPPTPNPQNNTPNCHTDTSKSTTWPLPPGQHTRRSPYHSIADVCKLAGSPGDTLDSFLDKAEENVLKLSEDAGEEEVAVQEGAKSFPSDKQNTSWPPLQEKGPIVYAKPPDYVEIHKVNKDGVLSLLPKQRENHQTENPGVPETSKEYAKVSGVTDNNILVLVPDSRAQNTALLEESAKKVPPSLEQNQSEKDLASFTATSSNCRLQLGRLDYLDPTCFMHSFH
As to the kind of experiment: cell-based or functional assay.

For assay [9], the target named is cyno PRLR on Baf3-cyPRLR cells (cyno). Nature of the assay: cell-based or functional assay.
In assay [10] the target is T1, human PRLR (Biacore antigen). Nature of the assay: SPR simultaneous binding; PRLR held by surface mAb chAb5. How it is done: as §1, §2
Assay [11] shares this target. As to the kind of experiment: SPR simultaneous binding; PRLR held by surface mAb Ab39. How it is done: as §1, §2
Assay [12] shares this target. As to the kind of experiment: SPR simultaneous binding; PRLR held by surface mAb chAb6. The procedure:
as §1, §2

B1: Ab39 (antibody, human IgG1, kappa, V domains shown)
VH: EVQLVQSGAEVKKPGSSVKVSCKASGYTFTSYWIHWVRQAPGQGLEWIGEIDPSDSYTNYNQKFKGRATLTVDKSSSTAYMELSSLRSEDTAVYYCARSFFTNWFAYWGQGTLVTVSS
VL: DVVMTQTPLSLSVTPGQPASISCRSSQSLVHSNGNTYLHWYLQKPGQSPQLLIYKVSNRFSGVPDRFSGSGSGTDFTLKISRVEAEDVGVYFCSQSTHVPFTFGGGTKVEIKR
notes: humanized from Ab7; G1; also called Ab4 HC.1a and Ab4 LC.1a
Consider B1, for which the “solution mAb binding, % of PRLR binding” value in [1] was -1%; in [2], 1%; in assay [6], -1%; in assay [7], 2%; in [10] it was 0%; in assay [11] it was -2%. For the same molecule, in assay [12], the “solution mAb binding, % of PRLR binding” value amounted to 0%. Besides, the Kd in assay [3] amounted to 4.25 nM; in assay [4], 742 nM; in [5], 4.01 nM. Moreover, the koff came to 0.000715 s⁻¹ in assay [3], 0.0427 s⁻¹ in [4] and 0.000613 s⁻¹ in [5]. Besides, the kon in assay [3] was determined as 168000 M⁻¹ s⁻¹; in [4], 57600 M⁻¹ s⁻¹; in assay [5] it was 153000 M⁻¹ s⁻¹. In [8], the “Baf3-mPRLR proliferation IC50” value was > 30 µg/mL. Moreover, the “Baf3-cyPRLR proliferation IC50” value in assay [9] is 0.25 µg/mL.

B2: Ab40 (antibody, human IgG1, kappa)
heavy: not shown
light: DVVMTQTPLSLSVTPGQPASISCRSSQSLVHSNGNTYLHWYLQKPGQSPQLLIYKVSNRFSGVPDRFSGSGSGTDFTLKISRVEAEDVGVYYCSQSTHVPFTFGGGTKVEIKRTVAAPSVFIFPPSDEQLKSGTASVVCLLNNFYPREAKVQWKVDNALQSGNSQESVTEQDSKDSTYSLSSTLTLSKADYEKHKVYACEVTHQGLSSPVTKSFNRGEC
notes: humanized from Ab7; G1; also called Ab4 HC.1a and Ab4 LC.1b
In the case of B2, the “solution mAb binding, % of PRLR binding” value in [1] is -1%; in [2], 1%; in assay [6] it was -1%; in [7], 0%; in assay [10], 0%; in assay [11], -2%. Besides, the “solution mAb binding, % of PRLR binding” value in assay [12] is -1%. Besides, the values for the dissociation constant Kd in assay [3], in assay [4] and in assay [5] were 5.38 nM, 1190 nM and 5.38 nM, respectively. Besides, the koff in assay [3] was 0.000823 s⁻¹; in assay [4] it was 0.0534 s⁻¹; in assay [5], 0.000719 s⁻¹. The on-rate constant (kon) in [3] was found to be 153000 M⁻¹ s⁻¹; in assay [4], 45000 M⁻¹ s⁻¹; in assay [5], 134000 M⁻¹ s⁻¹. Further, the “Baf3-mPRLR proliferation IC50” value in assay [8] was > 30 µg/mL. Also, in [9], the “Baf3-cyPRLR proliferation IC50” value was 0.32 µg/mL.

B3: Ab48 (antibody, human IgG1, kappa, V domains shown)
VH: EVQLVQSGAEVKKPGASVKVSCKASGYTFTDYNIHWVRQAPGQGLEWIGYIYPNNDGTGYNQKFKSRATLTVDNSTSTAYMELRSLRSDDTAVYYCARGDGNYVGDMDYWGQGTTVTVSS
VL: DIQMTQSPSSLSASVGDRVTITCRASENIYSYLAWYQQKPGKPPKLLVYNAKTLAEGVPSRFSGSGSGTDFTLTISSLQPEDFATYYCQHHYATPFTFGQGTKLEIKR
notes: humanized from Ab8; G1; also called Ab3 HC.1a and Ab3 LC.1a
For the molecule B3, the “solution mAb binding, % of PRLR binding” value in assay [1] is -1%; in assay [2] it was 0%; in [6], -1%; in assay [7] it was -2%; in assay [10], 0%; in assay [11], -2%. Further, the “solution mAb binding, % of PRLR binding” value in assay [12] is -2%. The figures for the Kd in assay [3], in [4] and in assay [5] were 0.18 nM, 453 nM and 9.77 nM, respectively. For the same molecule, the results for the koff in [3], in assay [4] and in [5] were 9.84e-05 s⁻¹, 0.0983 s⁻¹ and 0.00563 s⁻¹, respectively. Also, the kon is 546000 M⁻¹ s⁻¹ in assay [3], 217000 M⁻¹ s⁻¹ in assay [4] and 576000 M⁻¹ s⁻¹ in [5]. In addition, the “Baf3-mPRLR proliferation IC50” value in assay [8] is > 30 µg/mL. Moreover, the “Baf3-cyPRLR proliferation IC50” value in [9] is 4.87 µg/mL.

B4: Ab19 (antibody, human IgG1, kappa, V domains shown)
VH: EVQLVQSGAEVKKPGSSVKVSCKASGYTFTTYWMHWVRQAPGQGLEWIGEIDPSDSYSNYNQKFKDRATLTVDKSTSTAYMELSSLRSEDTAVYYCARNGGLGPAWFSYWGQGTLVTVSS
VL: DIQMTQSPSSVSASVGDRVTITCKASQYVGTAVAWYQQKPGKSPKLLIYSASNRYTGVPSRFSDSGSGTDFTLTISSLQPEDFATYFCQQYSSYPWTFGGGTKVEIKR
notes: humanized from Ab6; G1; also called Ab1 HC.1a and Ab1 LC.1a
As for B4, the “solution mAb binding, % of PRLR binding” value was -1% in assay [1]; 0% in assay [2]; -1% in [6]; 1% in [7]; 0% in [10]; -2% in assay [11]. The “solution mAb binding, % of PRLR binding” value in [12] was determined as 0%. Moreover, the dissociation constant (Kd) amounted to 0.409 nM in assay [3] and 0.691 nM in assay [5]. Besides, the figures for the dissociation rate constant (koff) in assay [3] and in assay [5] were 0.000403 s⁻¹ and 0.000728 s⁻¹, respectively. The on-rate (kon) in assay [3] stood at 985000 M⁻¹ s⁻¹; in assay [5] it was 1.05e+06 M⁻¹ s⁻¹. The “Baf3-mPRLR proliferation IC50” value in [8] was > 30 µg/mL. Moreover, the “Baf3-cyPRLR proliferation IC50” value in assay [9] was 0.13 µg/mL.

B5: LFA102 (antibody, human IgG1, kappa, V domains shown)
VH: EVQLVESGGGLVQPGGSLRLSCAVSGFTFSSYGMSWVRQAPGKRLEWVATVSSGGTYTYYPDSVKGRFTISRDNSKNTLYLQMNSLRAEDTAMYYCARHRGNYYATYYYAMDYWGQGTLVTVSS
VL: DIVLTQSPDSLAVSLGERATINCKASKSVSTSGYTYMHWYQQKPGQPPKLLIYLASNRESGVPDRFSGSGSGTDFTLTISPVQAEDVATYYCQHSGELPPSFGQGTKLEIKR
notes: humanized IgG1 kappa comparator (WO 2008022295)
B5: the “solution mAb binding, % of PRLR binding” value in assay [1] came out at 19%; in assay [2], 39%; in assay [6] it was 21%; in assay [7] it was 1%; in [10] it was 32%; in assay [11], 36%. Besides, in assay [12], the “solution mAb binding, % of PRLR binding” value amounted to 26%. The values for the equilibrium dissociation constant (Kd) in assay [3], in [4] and in assay [5] were 1.3 nM, 26 nM and 11 nM, respectively. Besides, the dissociation rate constant (koff) in [3] amounted to 0.00073 s⁻¹; in assay [4] it was 0.016 s⁻¹; in [5] it was 0.0095 s⁻¹. The results for the on-rate constant (kon) in assay [3], in [4] and in assay [5] were 560000 M⁻¹ s⁻¹, 620000 M⁻¹ s⁻¹ and 880000 M⁻¹ s⁻¹, respectively. The “Baf3-mPRLR proliferation IC50” value in assay [8] was > 30 µg/mL. Besides, the “Baf3-cyPRLR proliferation IC50” value in [9] was > 30 µg/mL.

(Values after patent US20170022281A1 (AbbVie / Abbott, published 2017).)
